Assay results published in patent publication US10052368B2, “Pegylated tissue kallikrein, and preparation method therefor and uses thereof” (ZONHON BIOPHARMA INSTITUTE INC., priority 2013, dated 2018).

Tested on: cerebral ischemia reperfusion model of middle cerebral artery obstruction (MCAO)
Experiment: Cerebral ischemia reperfusion model of middle cerebral artery obstruction (MCAO)
Type: in vivo
Conditions: SD rats, 3 μg/kg once via vena caudalis
Source text: A cerebral ischemia reperfusion model of middle cerebral artery obstruction (MCAO) was established by thread embolizing the internal carotid artery of SD rats (purchased from Shanghai Sippr bk Laboratory Animal Co. LTD.) A positive control 1 group (urinary kallikrein, Guangdong Tianpu Biochemical Pharmaceutical Co., LTD.), a positive control 2 group (tPA, Shanghai Boehringer Ingelheim Pharmaceuticals Co., LTD), a model control group (PBS), a sham group, a kallikrein group (from Changzhou Qianhong Biochemical Pharmaceutical Co., LTD.), a conjugate 1 group, a conjugate 2 group, a conjugate 3 group, and a conjugate 4 group were arranged respectively. Administration by injection through vena caudalis was performed once at 3 μg/kg (calculated according to the protein amount) immediately after the cerebral ischemia reperfusion. Neurologic deficit symptoms were observed 24 h after the reperfusion, and the cerebral infarction area was determined. In the model group, an equal volume of PBS was injected through vena caudalis into the rat. In the sham group, only blood vessels were separated, no embolizing thread was inserted, and an equal volume of PBS was injected through vena caudalis into the rats. Neurologic deficit symptoms were evaluated employing an improved Bederson 5-point system method. Neurologic deficit symptoms of the rats after brain trauma were evaluated by a single-blind method, i.e., the animals were marked according to groups by designers of the experiment, and scores of the neurologic deficit symptoms were given by experimenters blind to the grouping situation. The cerebral infarction area was calculated employing the following method. Cerebrums of the SD rats were stained with TTC (2,3,5-triphenyltetrazolium chloride) and then the photographs were subjected to statistics using an image analysis software, and the percentage of cerebral infarction area was calculated according to the following formula: % cerebral infarction area=100×(total ischemic area/total area on the right side)

B1: Positive control 2: tPA, Shanghai Boehringer Ingelheim Pharmaceuticals (protein, UniProt P00750 36-562, looked up)
Tissue-type plasminogen …: SYQVICRDEKTQMIYQQHQSWLRPVLRSNRVEYCWCNSGRAQCHSVPVKSCSEPRCFNGGTCQQALYFSDFVCQCPEGFAGKCCEIDTRATCYEDQGISYRGTWSTAESGAECTNWNSSALAQKPYSGRRPDAIRLGLGNHNYCRNPDRDSKPWCYVFKAGKYSSEFCSTPACSEGNSDCYFGNGSAYRGTHSLTESGASCLPWNSMILIGKVYTAQNPSAQALGLGKHNYCRNPDGDAKPWCHVLKNRRLTWEYCDVPSCSTCGLRQYSQPQFRIKGGLFADIASHPWQAAIFAKHRRSPGERFLCGGILISSCWILSAAHCFQERFPPHHLTVILGRTYRVVPGEEEQKFEVEKYIVHKEFDDDTYDNDIALLQLKSDSSRCAQESSVVRTVCLPPADLQLPDWTECELSGYGKHEALSPFYSERLKEAHVRLYPSSRCTSQHLLNRTVTDNMLCAGDTRSGGPQANLHDACQGDSGGPLVCLNDGRMTLVGIISWGLGCGQKDVPGVYTKVTNYLDWIRDNMRP
amelioration of cerebral infarction status of the model animals (in words): no apparent amelioration
Cerebral infarction area (%) (24 h after reperfusion, TTC staining): 31.55 ± 2.71%
Score of neurologic deficit symptom (24 h after reperfusion, improved Bederson 5-point system): 3.00 ± 0.20
